In publication PMC3391258 (PLoS ONE, 2012):

T1: TolC with a hexahistidine-tag at the C-terminus (E. coli, UniProt P02930 23-493)
T1 construct: also called TolC-His; hexa-His-tagged wild-type TolC; not shown: His6, C-terminal, kept
T1 sequence (looked up): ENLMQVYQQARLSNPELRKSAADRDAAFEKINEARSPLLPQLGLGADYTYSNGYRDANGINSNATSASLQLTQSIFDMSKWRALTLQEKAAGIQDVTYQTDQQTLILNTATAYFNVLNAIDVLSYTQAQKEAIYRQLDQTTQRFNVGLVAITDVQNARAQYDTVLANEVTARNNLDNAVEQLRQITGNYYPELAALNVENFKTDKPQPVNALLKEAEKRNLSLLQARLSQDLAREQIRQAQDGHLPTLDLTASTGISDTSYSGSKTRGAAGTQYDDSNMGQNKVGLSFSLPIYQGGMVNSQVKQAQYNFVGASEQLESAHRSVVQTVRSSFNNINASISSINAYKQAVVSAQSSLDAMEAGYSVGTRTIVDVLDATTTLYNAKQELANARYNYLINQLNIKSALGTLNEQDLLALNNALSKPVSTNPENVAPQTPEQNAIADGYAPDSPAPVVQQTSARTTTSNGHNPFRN


Target: T1, TolC with a hexahistidine-tag at the …
Test: cross-linking
Settings: partners not purified

Row | Binder | crosslinking to TolC, percent of that of wild-type HlyD
1 | HlyD-R186A tagged with c-Myc at the C-terminus (natural protein, also called HlyD-R186A-C-myc) MKTWLMGFSEFLLRYKLVWSETWKIRKQLDTPVREKDENEFLPAHLELIETPVSRRPRLVAYFIMGFLVIAFILSVLGQVEIVATANGKLTLSGRSKEIKPIENSIVKEIIVKEGESVRKGDVLLKLTALGAEADTLKTQSSLLQARLEQIRYQILSRSIELNKLPELKLPDEPYFQNVSEEEVLALTSLIKEQFSTWQNQKYQKELNLDKKRAERLTILARINRYENVSRVEKSRLDDFRSLLHKQAIAKHAVLEQENKYVEAANELRVYKSQLEQIESEILSAKEEYQLVTQLFKNEILDKLRQTTDSIELLTLELEKNEERQQASVIRAPVSGKVQQLKVHTEGGVVTTAETLMVIVPEDDTLEVTALVQNKDIGFINVGQNAIIKVEAFPYTRYGYLVGKVKNINLDAIEDQKLGLVFNVIVSVEENDLSTGNKHIPLSSGMAVTAEIKTGMRSVISYLLSPLEESVTESLHER | 10 % of wild-type HlyD
2 | HlyD-T197A tagged with c-Myc at the C-terminus (natural protein, also called HlyD-T197A-C-myc) MKTWLMGFSEFLLRYKLVWSETWKIRKQLDTPVREKDENEFLPAHLELIETPVSRRPRLVAYFIMGFLVIAFILSVLGQVEIVATANGKLTLSGRSKEIKPIENSIVKEIIVKEGESVRKGDVLLKLTALGAEADTLKTQSSLLQARLEQIRYQILSRSIELNKLPELKLPDEPYFQNVSEEEVLRLTSLIKEQFSAWQNQKYQKELNLDKKRAERLTILARINRYENVSRVEKSRLDDFRSLLHKQAIAKHAVLEQENKYVEAANELRVYKSQLEQIESEILSAKEEYQLVTQLFKNEILDKLRQTTDSIELLTLELEKNEERQQASVIRAPVSGKVQQLKVHTEGGVVTTAETLMVIVPEDDTLEVTALVQNKDIGFINVGQNAIIKVEAFPYTRYGYLVGKVKNINLDAIEDQKLGLVFNVIVSVEENDLSTGNKHIPLSSGMAVTAEIKTGMRSVISYLLSPLEESVTESLHER | 48 % of wild-type HlyD
